Experimental data taken from IntAct's records for PubMed 29656893.

B1: Shieldin complex subunit 3 (Homo sapiens), Q6ZNX1 (parent)
chain: MTTEVILHYRPCESDPTQLPKIAEKAIQDFPTRPLSRFIPWFPYDGSKLPLRPKRSPPVISEEAAEDVKQYLTISEHDAKSHSYDCTVDLLEFQPSLKKQHLTWSHTLKEQTNSGNLGKQSEKGKQHKRRSWSISLPSNNCTKNVSPLSKKLQDSLKALNLHSLYRARWTIEHTICNSQTLEDIWTKLNQIIRHNELPSCNATIQRHLGQIWVFCDIMYCEYVGSLLKGRLALTGKINLFVHKYGVIFSM

Variants of: B1
Conditions: with md2l2_human MAD2L2, Q9UI95
Sequence of md2l2_human MAD2L2, Q9UI95 (Q9UI95 whole entry): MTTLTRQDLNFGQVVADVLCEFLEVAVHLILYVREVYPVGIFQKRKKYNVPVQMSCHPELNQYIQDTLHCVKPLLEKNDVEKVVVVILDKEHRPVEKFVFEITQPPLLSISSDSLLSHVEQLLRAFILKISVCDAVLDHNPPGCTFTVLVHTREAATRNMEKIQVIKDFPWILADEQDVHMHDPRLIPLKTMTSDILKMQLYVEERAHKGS

Variant | effect of a mutation on the interaction
MTTEVILHYRPCESDPTQLPKIAEKAIQDFPTRPLSRFIPWFPYDGSKLPLRAKRSPAVISEEAAEDVKQYLTISEHDAKSHSYDCTVDLLEFQPSLKKQHLTWSHTLKEQTNSGNLGKQSEKGKQHKRRSWSISLPSNNCTKNVSPLSKKLQDSLKALNLHSLYRARWTIEHTICNSQTLEDIWTKLNQIIRHNELPSCNATIQRHLGQIWVFCDIMYCEYVGSLLKGRLALTGKINLFVHKYGVIFSM [P53A;P58A] | disrupting interaction strength
